Several values for one entry are separate records, joined by “and”; a condition that tells them apart may be missing. Equal values may be shown once.

Experiment [1] concerns the target ABIN2, Nluc- or YFP-tagged (BRET) (human) (UniProt Q8NFZ5). Description: FRET or BRET. In general terms: In BRET a luciferase serves as donor, and the signal depends on an acceptor being close.
For experiment [2], the target named is RelAp43, Nluc- or YFP-tagged (BRET). The experiment is described as follows: FRET or BRET.
Experiment [3] deals with TPL2, Nluc- or YFP-tagged (BRET) (human) (UniProt P41279). Description: FRET or BRET.
Experiment [4] has as its target T1, p105, Nluc- or YFP-tagged (BRET) (UniProt P19838 1-968).
T1 construct: also called NFκB1(p105/p50)
T1 sequence (looked up): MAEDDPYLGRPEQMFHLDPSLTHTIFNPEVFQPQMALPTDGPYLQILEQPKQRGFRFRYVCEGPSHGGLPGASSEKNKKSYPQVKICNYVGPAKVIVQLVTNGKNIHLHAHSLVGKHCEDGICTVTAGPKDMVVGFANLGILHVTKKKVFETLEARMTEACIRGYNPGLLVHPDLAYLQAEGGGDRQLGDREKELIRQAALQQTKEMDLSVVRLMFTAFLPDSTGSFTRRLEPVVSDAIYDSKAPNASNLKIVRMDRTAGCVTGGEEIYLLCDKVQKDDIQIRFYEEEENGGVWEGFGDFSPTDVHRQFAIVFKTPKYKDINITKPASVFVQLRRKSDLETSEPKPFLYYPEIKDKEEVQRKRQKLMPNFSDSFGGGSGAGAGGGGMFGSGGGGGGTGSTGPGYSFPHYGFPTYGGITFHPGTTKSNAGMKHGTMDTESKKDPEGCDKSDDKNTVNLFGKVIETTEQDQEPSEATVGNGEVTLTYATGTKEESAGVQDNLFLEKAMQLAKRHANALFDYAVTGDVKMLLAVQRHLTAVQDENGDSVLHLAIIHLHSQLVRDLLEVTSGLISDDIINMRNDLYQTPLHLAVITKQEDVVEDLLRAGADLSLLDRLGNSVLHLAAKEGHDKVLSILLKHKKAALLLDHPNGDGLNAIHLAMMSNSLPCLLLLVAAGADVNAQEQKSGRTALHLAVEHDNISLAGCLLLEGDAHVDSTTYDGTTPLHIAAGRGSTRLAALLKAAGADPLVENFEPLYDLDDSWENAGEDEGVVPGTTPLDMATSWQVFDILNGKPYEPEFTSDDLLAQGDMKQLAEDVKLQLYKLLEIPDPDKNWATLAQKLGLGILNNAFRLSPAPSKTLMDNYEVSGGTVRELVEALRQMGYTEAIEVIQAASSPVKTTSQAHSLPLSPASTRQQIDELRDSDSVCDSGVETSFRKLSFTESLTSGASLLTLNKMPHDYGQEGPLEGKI
The experiment is described as follows: FRET or BRET. To be noted: partners not purified.

In experiment [5] the target is T2, TPL2, Nluc- or YFP-tagged (BRET) (human, UniProt P41279-1 1-467).
T2 construct: also called MAP3K8
The experiment is described as follows: FRET or BRET. The settings on record: partners not purified.

Experiment [6] addresses TPL2, Glu1- or Glu2-tagged (PCA) (human, UniProt P41279-1 1-467). Description: split reporter (BiFC, NanoBiT). To be noted: partners not purified.

Sequence of RelAp43, Nluc- or YFP-tagged (BRET) (Q04206 whole entry): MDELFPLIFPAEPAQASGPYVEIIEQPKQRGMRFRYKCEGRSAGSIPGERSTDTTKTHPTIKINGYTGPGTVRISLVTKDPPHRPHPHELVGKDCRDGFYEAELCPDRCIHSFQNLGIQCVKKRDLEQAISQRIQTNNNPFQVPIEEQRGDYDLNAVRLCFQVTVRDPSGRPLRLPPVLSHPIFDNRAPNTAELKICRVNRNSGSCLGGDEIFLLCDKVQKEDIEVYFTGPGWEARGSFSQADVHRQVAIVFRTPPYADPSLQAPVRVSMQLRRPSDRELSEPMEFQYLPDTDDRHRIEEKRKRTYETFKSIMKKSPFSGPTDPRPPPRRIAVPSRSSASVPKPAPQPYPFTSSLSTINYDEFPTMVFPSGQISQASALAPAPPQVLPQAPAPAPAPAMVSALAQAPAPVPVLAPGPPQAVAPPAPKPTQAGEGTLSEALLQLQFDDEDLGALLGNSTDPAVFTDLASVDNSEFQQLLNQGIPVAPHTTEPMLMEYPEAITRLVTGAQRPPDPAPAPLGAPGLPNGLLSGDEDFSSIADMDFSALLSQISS
T2 sequence (P41279 whole entry): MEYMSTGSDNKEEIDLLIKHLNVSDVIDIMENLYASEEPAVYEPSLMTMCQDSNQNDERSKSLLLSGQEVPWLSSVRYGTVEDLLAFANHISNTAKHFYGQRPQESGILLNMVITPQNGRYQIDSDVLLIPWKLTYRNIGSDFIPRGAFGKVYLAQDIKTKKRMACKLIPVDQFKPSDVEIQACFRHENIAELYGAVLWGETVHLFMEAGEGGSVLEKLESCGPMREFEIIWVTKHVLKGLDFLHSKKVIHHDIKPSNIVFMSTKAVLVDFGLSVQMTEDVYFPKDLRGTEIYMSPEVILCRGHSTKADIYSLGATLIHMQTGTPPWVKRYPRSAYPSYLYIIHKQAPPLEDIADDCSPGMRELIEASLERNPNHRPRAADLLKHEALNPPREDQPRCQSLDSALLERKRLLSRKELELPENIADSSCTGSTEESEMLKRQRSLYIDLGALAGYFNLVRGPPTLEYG
Sequence of TPL2, Nluc- or YFP-tagged (BRET) (human) (P41279 whole entry): as above
Sequence of TPL2, Glu1- or Glu2-tagged (PCA) (P41279 whole entry): as above

As to “MSAD, YFP-tagged (BRET) (from UniProt P16287 1-202) (natural protein)”, the netBRET in experiment [1] was 0.022 and 0.063. For the molecule “MTha, YFP-tagged (BRET) (natural protein)”, the netBRET in experiment [2] was 0.022 to 0.109; in experiment [3], more than 0.05. In experiment [2], “p50, Nluc- or YFP-tagged (BRET) (domain or fragment)” yielded a netBRET of more than 0.05. Still for that read-out and setting: the value for “p105, Nluc- or YFP-tagged (BRET) (from UniProt P19838 1-968) (natural protein)” was more than 0.05.

B1: ABIN2, Nluc- or YFP-tagged (BRET) (natural protein, human, UniProt Q8NFZ5-1 1-429, looked up)
chain: MSRDPGSGGWEEAPRAAAALCTLYHEAGQRLRRLQDQLAARDALIARLRARLAALEGDAAPSLVDALLEQVARFREQLRRQEGGAAEAQMRQEIERLTERLEEKEREMQQLLSQPQHEREKEVVLLRRSMAEGERARAASDVLCRSLANETHQLRRTLTATAHMCQHLAKCLDERQHAQRNVGERSPDQSEHTDGHTSVQSVIEKLQEENRLLKQKVTHVEDLNAKWQRYNASRDEYVRGLHAQLRGLQIPHEPELMRKEISRLNRQLEEKINDCAEVKQELAASRTARDAALERVQMLEQQILAYKDDFMSERADRERAQSRIQELEEKVASLLHQVSWRQDSREPDAGRIHAGSKTAKYLAADALELMVPGGWRPGTGSQQPEPPAEGGHPGAAQRGQGDLQCPHCLQCFSDEQGEELLRHVAECCQ
notes: also called TNIP2
B1: the netBRET in experiment [4] was less than 0.05; in experiment [5], 0.093.

B2: ABIN2, Glu1- or Glu2-tagged (PCA) (natural protein, human, UniProt Q8NFZ5-1 1-429, looked up)
chain: B1 chain
For B2, the other in experiment [6] was 0.86.

B3: MSAD, YFP-tagged (BRET) (natural protein)
chain: MNLLRKIVKNRRDEDTQKSSPASAPLDDDDLWLPPPEYVPLKELTGKKNMRNFCINGRVKVCSPNGYSFRILRHILKSFDEIYSGNHRMIGLVKVVIGLALSGSPVPEGLNWVYKLRRTFIFQWADSRGPLEGEELEYSQEITWDDDTEFVGLQIRVIAKQCHIQGRVWCINMNPRACQLWSDMSLQTQRSEEDKDSSLLLE
Regarding B3, the netBRET in experiment [5] is more than 0.05.

Values taken from article PMC5679641 (PLoS Pathogens, 2017).
